As usually defined, the EC50 is the concentration giving half of the maximal effect. Usually EC50 (read off the curve) stands for the concentration giving half of the maximal effect. What is called Kd is the equilibrium constant for the complex coming apart. A high value points to lower affinity. One may read the IC50 as the point on the concentration scale where inhibition reaches its midpoint.

Read-outs that look alike come from different tables or passages of the source.

Assay [1] deals with T1, recombinant his-tagged human TACI (Sinobiological cat #11937-H08H) (human, UniProt O14836 1-165).
T1 construct: Bought protein; also called Human TACI-His; huTACI; not shown: His tag
T1 sequence: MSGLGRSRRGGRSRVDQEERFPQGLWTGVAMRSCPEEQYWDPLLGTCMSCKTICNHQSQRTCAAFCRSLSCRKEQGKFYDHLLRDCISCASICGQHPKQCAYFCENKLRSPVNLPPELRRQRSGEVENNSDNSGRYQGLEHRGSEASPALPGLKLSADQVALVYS
The assay can be described thus: ELISA, coated His-tagged human TACI. (In general: In an ELISA, binding on a coated surface is turned into a signal by an enzyme label.)

Assay [2] concerns the target T2, His-tagged human BCMA (Acro Biosystems, Cat. #BCA-H522y) (human, UniProt Q02223 1-54).
T2 construct: also called huBCMA; P1; not shown: His tag
T2 sequence: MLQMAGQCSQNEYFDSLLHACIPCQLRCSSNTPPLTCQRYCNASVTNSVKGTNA
The assay can be described thus: ELISA, coated His-tagged human BCMA.

For assay [3], the target named is T2, His-tagged human BCMA (Acro Biosystems, …). In words: BLI, His-tagged human BCMA on HIS1K tip.
Assay [4] has as its target T3, His-tagged cynomolgous macaque BCMA (Acro Biosystems, BCA-C52H7) (cynomolgus macaque, UniProt Q02223 1-54 (human entry)).
T3 construct: Bought protein; also called cyno BCMA; CyBCMA; not shown: His tag
The assay can be described thus: ELISA, coated His-tagged cynomolgus BCMA.

Assay [5] deals with T3, His-tagged cynomolgous macaque BCMA …. The assay can be described thus: BLI, His-tagged cynomolgus BCMA on HIS1K tip. In general terms: BLI is a label-free optical method that tracks binding on a fibre tip over time.
In assay [6] the target is T4, human BCMA expressed on cells (human, UniProt Q02223 1-184).
T4 construct: the cell line is named under assay; also called wildtype human BCMA
T4 sequence: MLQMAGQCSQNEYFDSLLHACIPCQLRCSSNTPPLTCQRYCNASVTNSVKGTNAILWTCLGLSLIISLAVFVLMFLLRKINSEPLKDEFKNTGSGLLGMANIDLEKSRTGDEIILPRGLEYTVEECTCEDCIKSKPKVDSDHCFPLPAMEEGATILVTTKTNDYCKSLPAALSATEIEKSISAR
The assay can be described thus: flow cytometry, H929 cells (BCMA-expressing).

Assay [7] concerns the target T2, His-tagged human BCMA (Acro Biosystems, …). In words: BLI, His-tagged human BCMA on HIS1K tip; R2 0.9933.
Assay [8] deals with T4, human BCMA expressed on cells. The assay can be described thus: flow cytometry, HEK 293 cells expressing human BCMA.
Assay [9] has as its target T3, His-tagged cynomolgous macaque BCMA …. In words: BLI, His-tagged cynomolgus BCMA on HIS1K tip; R2 0.9421.
For assay [10], the target named is T4, human BCMA expressed on cells. The assay can be described thus: flow cytometry, HEK293 cells stably expressing human BCMA. For orientation: A flow cytometer gives signals particle by particle.
Assay [11] concerns the target T2, His-tagged human BCMA (Acro Biosystems, …). The assay can be described thus: BLI, His-tagged human BCMA on HIS1K tip, no APRIL; R2 0.9933.
Assay [12] deals with T5, cynomolgous macaque BCMA expressed on CHOK1 cells.
T5 construct: also called cyno BCMA on cells
In words: flow cytometry, CHOK1 cells transiently expressing cynomolgus BCMA.

In assay [13] the target is T2, His-tagged human BCMA (Acro Biosystems, …). In words: ELISA, coated His-tagged human BCMA. This is another data set of the same source.
In assay [14] the target is T1, recombinant his-tagged human TACI …. In words: ELISA, coated His-tagged human TACI. The source holds these as a separate data set.
Assay [15] has the same target. In words: ELISA, coated His-tagged human TACI. This is another data set of the same source.
The target of a further assay is T6, BCMA Mut (human, UniProt Q02223 1-184).
T6 construct: Expressed on HEK293T cells; also called human BCMA comprising the substitutions Y13A, D15A, L17G and L18G
T6 chain: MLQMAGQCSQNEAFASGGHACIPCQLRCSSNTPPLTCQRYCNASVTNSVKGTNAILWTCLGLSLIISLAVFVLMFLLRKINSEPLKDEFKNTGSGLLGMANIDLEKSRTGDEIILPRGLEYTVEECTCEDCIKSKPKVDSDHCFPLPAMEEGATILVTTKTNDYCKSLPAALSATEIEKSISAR
The assay can be described thus: flow cytometry on HEK293T cells expressing BCMA Mut.

Assay [16] deals with T7, His-tagged mouse BCMA (Acro Biosystems, BCA-M52H3) (mouse, UniProt O88472 1-49).
T7 construct: Bought protein; not shown: His tag
T7 chain: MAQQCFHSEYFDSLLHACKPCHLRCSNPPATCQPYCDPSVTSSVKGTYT
The assay can be described thus: BLI, His-tagged mouse BCMA on HIS1K tip.

The target of assay [17] is T4, human BCMA expressed on cells. The assay can be described thus: flow cytometry, H929 cells (BCMA-expressing). The source holds these as a separate data set.
The target in assay [18] is T2, His-tagged human BCMA (Acro Biosystems, …). The assay can be described thus: BLI, His-tagged human BCMA on HIS1K tip; R2 0.9915.
Assay [19] addresses T7, His-tagged mouse BCMA (Acro Biosystems, …). In words: BLI, His-tagged mouse BCMA on HIS1K tip; R2 0.9403.
The target in assay [20] is T8, human TACI expressed on cells (human, UniProt O14836 1-293).
T8 construct: also called wildtype human TACI
T8 sequence: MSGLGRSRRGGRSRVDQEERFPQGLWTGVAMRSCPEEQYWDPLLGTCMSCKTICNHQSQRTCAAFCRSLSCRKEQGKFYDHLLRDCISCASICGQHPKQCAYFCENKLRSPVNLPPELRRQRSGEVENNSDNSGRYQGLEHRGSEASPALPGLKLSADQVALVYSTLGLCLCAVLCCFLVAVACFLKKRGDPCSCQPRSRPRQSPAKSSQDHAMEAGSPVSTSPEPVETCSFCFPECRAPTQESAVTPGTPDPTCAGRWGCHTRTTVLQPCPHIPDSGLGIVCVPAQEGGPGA
The assay can be described thus: flow cytometry, HEK 293 cells expressing human TACI.

Assay [21] addresses T3, His-tagged cynomolgous macaque BCMA …. In words: BLI, His-tagged cynomolgus BCMA on HIS1K tip; R2 0.9915.
Assay [22] addresses T4, human BCMA expressed on cells. In words: flow cytometry, HEK293 cells stably expressing human BCMA. This is another data set of the same source.
The target of assay [23] is T2, His-tagged human BCMA (Acro Biosystems, …). The assay can be described thus: BLI, His-tagged human BCMA on HIS1K tip, no APRIL; R2 0.9915.
Assay [24] deals with T5, cynomolgous macaque BCMA expressed on …. The assay can be described thus: flow cytometry, CHOK1 cells transiently expressing cynomolgus BCMA. The source holds these as a separate data set.
Assay [25] has as its target T2, His-tagged human BCMA (Acro Biosystems, …). In words: competition ELISA: His-tagged human BCMA binding to coated APRIL-Fc in the presence of the antibody.
For assay [26] the target is unchanged. The assay can be described thus: BLI, His-tagged human BCMA on HIS1K tip; R2 0.9903.
The target in assay [27] is T3, His-tagged cynomolgous macaque BCMA …. The assay can be described thus: BLI, His-tagged cynomolgus BCMA on HIS1K tip; R2 0.9205.
For assay [28], the target named is T2, His-tagged human BCMA (Acro Biosystems, …). The assay can be described thus: BLI, His-tagged human BCMA on HIS1K tip, no APRIL; R2 0.9903.
The target of assay [29] is T7, His-tagged mouse BCMA (Acro Biosystems, …). The assay can be described thus: BLI, His-tagged mouse BCMA on HIS1K tip; R2 0.2621, below the filing's cut-off of 0.9.

B1: 552-LN1-E9 hIgG1 (antibody, V domains shown)
VH: QIQLVQSGPELKKPGETVKISCKASGYTFTDYSIYWVKQAPGKGLKWMGWINTETGEPTYADDFKGRFAFSLETSASSAYLQINTLKNEDTATYFCSISYYYAMDYWGQGTSVTVSS
VL: DIVLTQSPASLAVSLGQRATISCRASKSVSTSGYSFLHWYQQKPGQPPKLLIYFASNLESGVPARFSGSGSGTDFTLNIHPVEEEDAATYYCQHSRELPRTFGGGTKLEIKR
notes: Human-mouse chimeric antibody, human IgG1 format; also called [6]
For the molecule B1, the binding result is recorded as “no binding (tested: 10 ug/ml)” in assay [1] and “binds” in assay [12]. The results for the 50% effective concentration (EC50) in assay [2] and in assay [8] were 0.081 nM and 0.65 nM, respectively. Also, the “Human BCMA response” value in [3] is 2.76. Besides, the concentration giving a half-maximal response (EC50 (read off the curve)) was ~0.08 mg/L in assay [4], ~0.05 mg/L in [6] and ~0.1 mg/L in [10]. Moreover, the “Cyno BCMA response” value in assay [5] worked out at 1.8. Besides, the Kd was < 0.001 nM in assay [7], 32.6 nM in assay [9] and < 0.001 nM in [11].

B2: 539-SP1-C8 hIgG1 (antibody, V domains shown)
VH: EVQLQQSGPELVKPGSSVKMSCKASGYTFTNYVMHWVKQKPGQGLEWIGYILPYNDGTKYNEKFKGKATLTSDKSSSTAYMEFSVLTSEDSAVYYCARYDYEGSFDYWGQGTALTVSS
VL: DIQMTQTTSSLSASLGDRVTISCRASQDISNYLNWYQQKPDGTVKLLMCYTSRLHSGVPSRFSGSGSGTDFSLTISNLEQEDIATYFCQQGNTFPPTFGGGTKLEIKR
notes: Human-mouse chimeric antibody, human IgG1 format; also called [2]
Take B2: the 50% effective concentration (EC50 (read off the curve)) in [13] was ~0.009 mg/L; in [14] it was ~0.01 mg/L; in assay [6], ~0.02 mg/L; in [17], ~1 nM; in assay [22], ~0.4 mg/L. Also, the concentration for a half-maximal effect (EC50) turned out to be 0.059 nM in assay [2], 0.083 nM in assay [15], 2.56 nM in assay [8] and 8.2 nM in assay [20]. Also, the binding result in the assay with BCMA Mut was “no binding”; in [24] it was “binds”. Besides, the “Human BCMA response” value in assay [3] is 2.46. Further, the “Mouse BCMA response” value in [16] was 0.86. The “Cyno BCMA response” value in assay [5] was determined as 0.456. Further, the equilibrium dissociation constant (Kd) was < 0.001 nM in assay [18], 29.5 nM in assay [19], 14.7 nM in [21] and < 0.001 nM in assay [23]. For the same molecule, the IC50 in assay [25] is 1.17 nM.

B3: 539-SP7-F4 hIgG1 (antibody, V domains shown)
VH: EVQLQQSGPELVKPGASMKISCKASGYSFTGYIMNWVKQSHGKNLEWIGLINPYNGDSIYNQKFKGKATLTVDKSSSTAYMELFSLTSEDSTVYYCAAGEEFAYWGQGTLVTVSA
VL: DIQMTQTSSSLSASLGDRVTISCRASQDISIYLNWFQQKPDGTVKLLIYFTSRLHPGVPSRFSASGSGTDYSLTISHLEHEDIATYFCQQGNTLPRTFGGGTKVELKR
notes: Human-mouse chimeric antibody, human IgG1 format
In the case of B3, the binding result in [1] was “no binding (tested: 10 ug/ml)”; in [12] it was “binds”. The “Human BCMA response” value in assay [3] was 2.61. Besides, the “Mouse BCMA response” value in assay [16] was determined as 0.371. Also, the “Cyno BCMA response” value in assay [5] is 1.36. The “EC50 (read off the curve)” value in [6] is ~0.04 mg/L; in assay [10], ~0.05 mg/L. The equilibrium dissociation constant (Kd) was < 0.001 nM in assay [26], 34.1 nM in [27], < 0.001 nM in [28] and 8.97 nM in assay [29].

These data come from patent publication US20230374147A1 (HUMMINGBIRD BIOSCIENCE PTE, published 2023).
